The assay addresses CXCL8 (human).

“P1156:G4S:P1243 two-warhead evasin (from UniProt V5HBW0;A0A0C9S461)” registered a mean IC50 (three biological replicates) of inhibition of primary human granulocyte migration induced by the EC80 dose of CXCL8 of 7.5e-09 M. For “P1243:G4S:P1156 two-warhead evasin (from UniProt A0A0C9S461;V5HBW0)”, the mean IC50 (three biological replicates) of inhibition of primary human granulocyte migration induced by the EC80 dose of CXCL8 was 3.8e-08 M.

Values taken from article PMC5910400.
